What was measured:
[1] = biological target: T1, 21 amino acid polypeptide at the N-terminus of human ADM (human); test: ELISA, peptide coated at 1.0 ug/mL, hybridoma supernatant
T1 construct: Coated on the ELISA plate in the hybridoma screening; also called YY-21
T1 peptide: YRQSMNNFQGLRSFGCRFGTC
Protocol: (§1) YY-21 or YY-19 was diluted with PBS to 1.0 μg/mL, added to a 96-well plate (Corning, 9018), with 100 μL/well, and incubated at 4° C. overnight for coating. The ELISA plate was washed 3 times with a washing buffer (PBS+0.05% Tween 20) on an automatic plate washer the next day. 300 μL of a blocking buffer (PBS+0.05% Tween 20+1% BSA) was added to each well, and the plate was placed at room temperature for 1 h for blocking. The plate was then washed 3 times with the washing buffer on the automatic plate washer, and the hybridoma supernatant was added to each well of the ELISA plate. The plate was placed and incubated at room temperature for 1 h, and then washed 3 times according to the method described above. Goat Anti-mouse IgG Fc-HRP (Sigma, A0168) or Goat Anti-rat-IgG-HRP (Sigma, A5795) was diluted in 1:5000 with the blocking buffer, with 100 μL/well. The plate was placed and incubated at room temperature for 1 h. The plate was then washed 3 times according to the method described above. A TMB substrate solution was added with 100 μL/well and incubated at room temperature for 10 min, then 50 μL of 1.0 M hydrochloric acid was added to each well to terminate the reaction, and the plate was read by a microplate reader at OD₄₅₀ nm. […]

[2] = biological target: T2, 19 amino acid polypeptide at the N-terminus of mouse ADM (mouse); test: as above
T2 construct: Coated on the ELISA plate in the hybridoma screening; also called YY-19
T2 peptide: YRQSMNQGSRSNGCRFGTC
Protocol: as §1

biotin-labeled human ADM [3] = biological target: T3, biotin-labeled human ADM (human, not fully specified; biotin label (named human ADM-C-biotin in Example 1.4; position of the biotin not stated for the other lots)); test: BLI (Octet RED96e), biotinylated antigen on streptavidin sensor, antibody 100 nM, 1:1 fit
T3 construct: Synthetic peptide; also called human ADM-C-biotin; hADM-Biotin
T3 peptide: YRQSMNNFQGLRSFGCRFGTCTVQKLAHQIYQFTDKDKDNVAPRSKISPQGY
Protocol: (§2) The affinity of the candidate antibody for biotin-labeled human ADM (human ADM-C-biotin for short, the sequence of human ADM is set forth in SEQ ID NO: 4) and mouse ADM (mouse ADM-C-biotin for short, the sequence of mouse ADM is set forth in SEQ ID NO: 5) was determined by adopting Octet RED96e (Fortebio). The antigens and antibody were all diluted with 1× PBST, the concentration of the antigen used was 2 μg/mL, and the working concentration of the antibody used was 100 nM.
(§3) First, the sample was added to a 96-well plate (Greiner bio-one, 655209) with a system of 200 μL/well. Software parameters were then set, the plate temperature was set to 30° C., and the standard kinetic signal was collected at a frequency of 5.0 HZ. Next, a streptavidin sensor (Fortébio, Cat. No. 18-5020) was pre-wetted with 1× PBST for 10 min and then tested on a machine. Each cycle included the following steps: 1) immersing the sensor in a buffer for 180 s to stabilize the baseline; 2) immobilizing the antigen for 10 s, allowing the antigen to bind to the sensor, and controlling the binding amount of the antigen between 0.5 nm and 1.0 nm; 3) immersing the sensor in the buffer for 180 s; 4) binding the antigen to the antibody for the binding time of 180 s; and 5) dissociating the antigen and the antibody for 10 min.
(§4) The equilibrium dissociation constant (KD) of the antibody was calculated by measuring the association rate (Kon) and the dissociation rate (Koff) of the antigen-antibody in a 1:1 binding manner by adopting the Data Analysis 12.0 software from Fortebio.

biotin-labeled mouse ADM [4] = biological target: T4, biotin-labeled mouse ADM (mouse, not fully specified; biotin label (named mouse ADM-C-biotin in Example 1.4; position of the biotin not stated for the other lots)); test: as above
T4 construct: Synthetic peptide; also called mouse ADM-C-biotin; mADM-Biotin
T4 peptide: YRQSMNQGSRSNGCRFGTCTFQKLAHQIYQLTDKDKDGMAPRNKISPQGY
Protocol: as §2, §3, §4

biotin-labeled human ADM [5] = biological target: T3, biotin-labeled human ADM; test: ELISA of E. coli culture supernatant of phage library monoclones
biotin-labeled human ADM [6] = biological target: T3, biotin-labeled human ADM; test: flow staining of yeast-displayed Fab at graded antigen concentrations
Text: (§5) For the first round of screening products of JYYDL227, 46 monoclones were picked for sequencing, and finally, a yeast monoclonal colony with a unique sequence was obtained for EC₅₀ identification by flow staining.
(§6) According to the staining results of the clones (as shown in Table 6) in combination with the similarity of the sequences of the clones, the monoclones expressing antibodies Ab2004.Am31 (with amino acid sequences of variable regions set forth in SEQ ID NOs: 31 and 36), Ab2004.Am32 (with amino acid sequences of variable regions set forth in SEQ ID NOs: 31 and 37), Ab2004.Am33 (with amino acid sequences of variable regions set forth in SEQ ID NOs: 32 and 36), Ab2004.Am34 (with amino acid sequences of variable regions set forth in SEQ ID NOs: 33 and 38), Ab2004.Am35 (with amino acid sequences of variable regions set forth in SEQ ID NOs: 31 and 38), Ab2004.Am36 (with amino acid sequences of variable regions set forth in SEQ ID NOs: 31 and 39), Ab2004.Am37 (with amino acid sequences of variable regions set forth in SEQ ID NOs: 34 and 38), Ab2004.Am38 (with amino acid sequences of variable regions set forth in SEQ ID NOs: 34 and 40), Ab2004.Am39 (with amino acid sequences of variable regions set forth in SEQ ID NOs: 33 and 41), and Ab2004.Am40 (with amino acid sequences of variable regions set forth in SEQ ID NOs: 31 and 42) were finally selected. The amino acid sequences of the Chothia-numbered CDRs of the candidate antibodies are shown in Table 7, and the amino acid sequences of the light and heavy chain variable regions of the candidate antibodies are shown in Table 8.

biotin-labeled mouse ADM [7] = biological target: T4, biotin-labeled mouse ADM; test: as above
Text: as §5, §6

B1: hybridoma clone 40E12 (antibody, V domains shown)
VH: QIQLVQSGPELRKPGETVKISCKASGYAFTTFGMSWIKQAPGQGLKWMGWINTYSRVPKYTDDFKGRFAFSLEISATTAYLLINNLKNGDTATYFCARGYGGEGGLGFSGQGTTLTVSS
VL: DVLMTQTPFSLPVSLGDQASISCRSSQSIIDSDGNTYLEWYLQKPGQSPKLLIYKVSNRFSGVPDRFSGSGSGTDFTLRISRVEAEDLGVYYCFQGSHFPYTFAGGTKLELK
notes: Murine hybridoma antibody purified on protein A; also called candidate antibody 40E12
- binding result [1]: binds
- binding result [2]: binds
- Kd (biotin-labeled human ADM [3]): 0.314 nM
- koff (biotin-labeled human ADM [3]): 0.000109 s⁻¹
- kon (biotin-labeled human ADM [3]): 347000 M⁻¹ s⁻¹
- Kd (biotin-labeled mouse ADM [4]): 0.236 nM
- koff (biotin-labeled mouse ADM [4]): 8.9e-05 s⁻¹
- kon (biotin-labeled mouse ADM [4]): 377000 M⁻¹ s⁻¹

B2: monoclone 1F12 (from the fully human single-chain phage antibody library) (scFv, V domains shown)
VH: QVQLVQSGAEVKKPGASVKVSCKASGYTFTSYGISWVRQAPGQGLEWMGWISAYNGNTNYAQKLQGRVTMTRDTSTSTAYMELRSLRSDDTAVYYCAREGRSGGSFDIWGQGTMVTVSS
VL: DIQMTQSPSSLSASVGDRVTITCRASQGISSYLAWYQQKPGKAPKLLIYDASNLETGVPSRFSGSGSGTDFTFTISSLQPEDIATYYCQQYDNLPLTFGGGTKVEIK
notes: Tested as E. coli culture supernatant of a clone of a single-chain library
- binding result (biotin-labeled human ADM [5]): binds

B3: Ab2004.Am39 (Fab displayed on yeast) (Fab, V domains shown)
VH: QVQLVQSGAEVKKPGASVKVSCKASGYTFTHYGIAWVRQAPGQGLEWMGWISAYQGNTNYAQKLQGRVTMTRDTSTSTAYMELRSLRSDDTAVYYCAREGRWGGSFNIWGQGTMVTVSS
VL: DIQMTQSPSSLSASVGDRVTITCRASQGISSYLAWYQQKPGKAPKLLIYDASNLETGVPSRFSGSGSGTDFTFTISSLQPEDIATYYCQQYDDLDLTFGGGTKVEIK
notes: Yeast monoclonal colony of library JYYDL227 (Fab display)
- EC50 (biotin-labeled human ADM [6]): 0.86 nM
- EC50 (biotin-labeled mouse ADM [7]): 4.23 nM

B4: Ab2004.Am40 (Fab displayed on yeast) (Fab, V domains shown)
VH: QVQLVQSGAEVKKPGASVKVSCKASGYTFTQYGIAWVRQAPGQGLEWMGWISAYQGNTNYAQKLQGRVTMTRDTSTSTAYMELRSLRSDDTAVYYCAREGRWGGSFNIWGQGTMVTVSS
VL: DIQMTQSPSSLSASVGDRVTITCRASQGISSYLAWYQQKPGKAPKLLIYDASNLETGVPSRFSGSGSGTDFTFTISSLQPEDIATYYCQQYDDLPLSFGGGTKVEIK
notes: as for B3
- EC50 (biotin-labeled human ADM [6]): 0.5 nM
- EC50 (biotin-labeled mouse ADM [7]): 2.5 nM

Reference: patent US20260035456A1 (SHANGHAI JEYOU PHARMACEUTICAL, published 2026)
